# Measured values as given in article PMC2791223.
# Assays:
# Experiment in all cases: pull-down; partially purified recombinant proteins mixed and incubated overnight at 4°C, GSTrap columns, washed with 50 mM Tris pH 7.5, 150 mM NaCl, eluted with 10 mM reduced glutathione; Western blot with anti-His6 antibody, bands quantified with Image J, pulldown by GST-CD-Nef set to 100%
# [1] = target: GST-MHC-I CD-Nef (human | HIV-1) (UniProt P03406)
# [2] = target: GST-CD-Nef E62-65A,LL/AA (human | HIV-1) (UniProt P03406)
# [3] = target: GST-CD-Nef P78A,LL/AA (human | HIV-1) (UniProt P03406)
# [4] = target: GST-CD-Nef M20A,LL/AA (human | HIV-1) (UniProt P03406)
# [5] = target: GST-CD(Y320A)-NefLL/AA (human | HIV-1) (UniProt P03406)
# [6] = target: GST-MHC-I CD-Nef LL/AA (human | HIV-1) (UniProt P03406)
Molecule,pulldown efficiency (% of the pulldown of wild-type μ1 by GST-CD-Nef) [1],pulldown efficiency (% of the pulldown of μ1 by GST-CD-Nef) [2],pulldown efficiency (% of the pulldown of μ1 by GST-CD-Nef) [3],pulldown efficiency (% of the pulldown of μ1 by GST-CD-Nef) [4],pulldown efficiency (% of the pulldown of μ1 by GST-CD-Nef) [5],pulldown efficiency (% of the pulldown of μ1 by GST-CD-Nef) [6]
truncated μ1 mutant V392A/L395A (domain or fragment),24%,,,,,
truncated μ1 mutant F172A/D174S (domain or fragment),57%,,,,,
"μ121 (AP-1 medium subunit μ1, residues 121–423) (domain or fragment) GYPQTTDSKILQEYITQEGHKLETGAPRPPATVTNAVSWRSEGIKYRKNEVFLDVIEAVNLLVSANGNVLRSEIVGSIKMRVFLSGMPELRLGLNDKVLFDNTGRGKSKSVELEDVKFHQCVRLSRFENDRTISFIPPDGEFELMSYRLNTHVKPLIWIESVIEKHSHSRIEYMVKAKSQFKRRSTANNVEIHIPVPNDADSPKFKTTVGSVKWVPENSEIVWSVKSFPGGKEYLMRAHFGLPSVEAEDKEGKPPISVKFEIPYFTTSGIQVRYLKIIEKSGYQALPWVRYITQNGDYQLRTQ",,30%,19%,53%,16%,77%
